Reference: the supplement of paper PMC9170038

System: MS2 coat protein
Assay: apparent KD of MS2 coat protein; higher = weaker reporter binding
Conditions: Eterna round: R107
Outline: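 Titrations with SNAP-549-labelled MS2 coat protein ran in twofold steps from 0.7 or 1.5 nM to 3 µM, each step taking 0.8–1.5 h at the start and 10–20 min toward the end. The targets were designed RNA switches transcribed on-chip from Illumina sequencing clusters, held in 100 mM Tris-HCl pH 7.5, 80 mM KCl, 4 mM MgCl2, without or with constant ligand. Apparent KD was taken per design as the median of normalised cluster binding-curve fits.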

[1] = input ligand: theophylline 20 uM
[2] = input ligand: theophylline 2 mM
[3] = input ligand: tryptophan 2.4 mM

Sequence | apparent KD of MS2 coat protein (input ligand: arginine 13.2 mM) [nM] | apparent KD of MS2 coat protein [1] [nM] | apparent KD of MS2 coat protein [2] [nM] | apparent KD of MS2 coat protein [3] [nM] | apparent KD of MS2 coat protein (input ligand: none) [nM]
AGGAAUGUCACGGCCGCCACUGACGCUAAAAUGGGCUCGAGCCGACAUGAGGAUCACCCAUGUUCCAGGACCGGGUGAAUCCUGG [theeternabot_sameState_MS2_Trp_B_40] | 102 | 154 | 299 | – | –
AGGGACAUGAGGAUCACCCAUGUUGAAACUCGAGGACCGGUACGGCCGCCACUCGUAUAAUCGAUGUCCAUUUGGGAUUCCGGCU [theeternabot_sameState_MS2_Trp_A_17] | 21.4 | 32.8 | 39 | – | –
AGGUGCUGAUCGGCCGCCACUGAGAGGACGUGAACUUUAGCUGGUUACAUGAGGAUCACCCAUGUCAGGACCGGGAUUAGUUUGC [Quleorla] | 11.3 | 17.4 | 10.7 | – | –
AGUAAUCUAAGAGAUACCAGACGGUAUAUAACAUGAGGAUCACCCAUGUUUUGGGUGUACGUCCCUUGGCAGCUCAAAAUGAUAA [#06 Same State - Theophylline B] | 123 | 202 | – | 382 | –
AGUCUUAGUGGAAGGAGCGCAGUCAUAACAUGAGGAUCACCCAUGUCGAGGUGAGGGUCAUUGCAGGUAGGUCGCCAUAAUAGGA [#16 Same State - Arginine B] | 19.3 | 355 | 322 | 369 | 156
AGUCUUGUGGGAAGGAGCGCAUACUUCACAUGAGGAUCACCCAUGUCAAGACGUGAGUCAGUGCAGGUAGGUCGCCUAACUAAGA [Same State - Arginine B (Freestyle 15)] | 53.1 | 37.4 | 35.8 | 28.2 | 30.3
AGUUGACAAAAGUCAGCAACAUGAUCCGAAGGAGCGGGCGAAAGCCCAGGUAGGUCGCGGACAUGAGGAUCACCCAUGUCUCCUU [ArgAX 3 #OpenEnded #Sliding] | 46.6 | 70.6 | 100 | 63.9 | 74.3
AUAAAUAUAACCGAUACCAGCCUUAUACAUGAGGAUCACCCAUGUUAUGCUUCCUUUUUUGGCCCUUGGCAGCGGAAAUGGGUAA [AstrosSSTheB#2] | 47.6 | 65.8 | – | 65.3 | –
AUAACACAUGAGGAUCACCCAUGUAAGGAUACCAGUUUCUGAUUAAACCCUUGGCAGCCUAGAGAUAGUCAUGUAAUAACGGCGA [theeternabot_sameState_MS2_Theo_A_19] | 12.4 | 18.1 | – | 12.2 | –
AUAACAUGAGGAUCACCCAUGUAAGCUGAAGGAGCGCUGGAAACAGCAGGUAGGUCGCAGCGGCGACCUUCAUGGGUAAGGUCGC [(M1)-(M2)-(Arg1)-(Arg2)-(A)'-(M)'-(A)''_Design4] | 33.1 | 41.2 | 40.5 | 30.4 | 32.8
AUAACAUGAGGAUCACCCAUGUAAGGUGAUACCAGACGAAGUAAAGUCCCUUGGCAGCACAAGUAAAGUUACGAAUAUUGAUAGA [JR_SSTheophyA_Sub004] | 62.2 | 416 | – | 634 | –
AUAACUGUAAUAAACCGCAGGCUAGUGGAAGGAGCGCGGAAUAACGCAGGUAGGUCGCCACAAACAUGAGGAUCACCCAUGUGGC [SSAA NP+V+V2 #6] | 16 | 21.6 | 20.7 | 19.6 | 16
AUAAGUAAUGUCUCGUGUAUUAUUACAGAUACCAGACUAUCCUAUGUCCCUUGGCAGCUGGAUUACAUGAGGAUCACCCAUGUGG [#11 Exclusion-TheophyllineA] | 37.6 | 49.5 | – | 42 | –
AUAAGUAAUGUUACGUGUUUUAUUACAGAUACCAGACUAUACGUUGUCCCUUGGCAGCUGAAUUACAUGAGGAUCACCCAUGUUG [JR_ExcTheophyA_Sub004] | 15.9 | 18.4 | – | 15.1 | –
AUAUAUACAUGAGGAUCACCCAUGUUAUUUCGAGGACCGGUACGGCCGCCACUCGAUAGAGUAGAAGUAUUUUGGGAUAGUUGAU [JR_SSTryptoA_Sub015] | 19.7 | 30.7 | 23.6 | 15.6 | 18.5
